Here are results for 44 sequences from the Immune Epitope Database (IEDB).

Where only a bound is given, the exact number is not on record here.

One experiment concerns the target HLA-A*69:01. As to the kind of experiment: IEDB peptide-MHC binding, purified MHC/direct/fluorescence; filed as Kd, often an IC50 or EC50 that approximates it; ≥ and ≤ were set here for values at or beyond the usual limits of such assays.
The target in experiment [1] is HLA-A*02:01. Described as above.
A further experiment concerns the target HLA-A*30:01. As to the kind of experiment: IEDB peptide-MHC binding, purified MHC/competitive/radioactivity; filed as Kd, often an IC50 or EC50 that approximates it; ≥ and ≤ were set here for values at or beyond the usual limits of such assays.
Experiment [2] has as its target HLA-A*02:01. As to the kind of experiment: IEDB peptide-MHC binding, purified MHC/competitive/fluorescence; ≥ and ≤ were set here for values at or beyond the usual limits of such assays.
The target in experiment [3] is HLA-A*26:01. Briefly: IEDB peptide-MHC binding, purified MHC/direct/fluorescence; filed as Kd, often an IC50 or EC50 that approximates it; ≥ and ≤ were set here for values at or beyond the usual limits of such assays. The following applies: source organism: Mycobacterium tuberculosis.
The next experiment deals with HLA-B*15:01. The experiment is described as above.
The target in experiment [4] is HLA-A*02:01. As to the kind of experiment: IEDB peptide-MHC binding, purified MHC/competitive/fluorescence; filed as Kd, often an IC50 or EC50 that approximates it; ≥ and ≤ were set here for values at or beyond the usual limits of such assays.
In experiment [5] the target is HLA-A*03:01. As to the kind of experiment: IEDB peptide-MHC binding, purified MHC/direct/fluorescence; filed as Kd, often an IC50 or EC50 that approximates it; ≥ and ≤ were set here for values at or beyond the usual limits of such assays. The following applies: source organism: Escherichia coli.
The target in another experiment is HLA-B*07:02. The description is as above.
Experiment [6] concerns the target HLA-A*26:01. As to the kind of experiment: IEDB peptide-MHC binding, purified MHC/competitive/radioactivity; filed as Kd, often an IC50 or EC50 that approximates it; ≥ and ≤ were set here for values at or beyond the usual limits of such assays. Conditions: source organism: Dengue virus 2 Jamaica/1409/1983.
The next experiment concerns the target HLA-B*58:01. Briefly: IEDB peptide-MHC binding, purified MHC/direct/fluorescence; filed as Kd, often an IC50 or EC50 that approximates it; ≥ and ≤ were set here for values at or beyond the usual limits of such assays.
In experiment [7] the target is HLA-A*11:01. The description is as above. The following applies: source organism: Yellow fever virus.
Another experiment has as its target HLA-A*02:02. Briefly: IEDB peptide-MHC binding, purified MHC/competitive/radioactivity; filed as Kd, often an IC50 or EC50 that approximates it; ≥ and ≤ were set here for values at or beyond the usual limits of such assays. Conditions: source organism: Vaccinia virus WR.
The target of a further experiment is HLA-A*02:06. The description is as above. Conditions: source organism: Vaccinia virus WR.
A further experiment deals with HLA-A*02:03. Described as above. The following applies: source organism: Vaccinia virus WR.
The target in experiment [8] is HLA-A*03:01. The description is as above. The following applies: source organism: Dengue virus 1 Brazil/97-11/1997.
Experiment [9] concerns the target HLA-A*11:01. The experiment is described as above. The following applies: source organism: Dengue virus 1 Brazil/97-11/1997.
The next experiment concerns the target HLA-A*24:02. The description is as above. Conditions: source organism: Dengue virus 1 Nauru/West Pac/1974.
The mark [10] stands for this setting: source organism: Mycobacterium tuberculosis variant bovis.
Setting [11] is: source organism: Vaccinia virus WR.
The mark [12] stands for this setting: source organism: Zaire ebolavirus.
Setting [13] is: source organism: Bacillus anthracis.
[14] abbreviates: source organism: Vaccinia virus Copenhagen.
[15] abbreviates: source organism: Vaccinia virus.
Setting [16] is: source organism: Human immunodeficiency virus type 1 (STRAIN UGANDAN / ISOLATE U455).
[17] abbreviates: source organism: West Nile virus.
[18] abbreviates: source organism: Shigella boydii.

In the case of ELRGLLKDV, the Kd with HLA-A*69:01 (setting [10]) was 13000 nM; with HLA-A*02:01 [1] (setting [10]) it was at least 20000 nM.

On to KQKMGPIYA, for which, in the experiment with HLA-A*30:01 (setting [11]), the Kd was 21.7 nM.

The sequence FIPENQRTV registered an IC50 with HLA-A*02:01 [2] (source organism: Human alphaherpesvirus 1 strain 17) of 4220 nM.

Consider MTSLSAVSV, for which the Kd with HLA-A*30:01 (setting [11]) is 887 nM.

KHGEYAPFA displayed an IC50 in the experiment with HLA-A*02:01 [2] (setting [12]) of 28300 nM.

As for FLIDLAFLI, the Kd in the experiment with HLA-A*02:01 [1] (source organism: Camelpox virus M-96) turned out to be 3 nM.

In the experiment with HLA-A*26:01 [3], VTTLGLPFY gave a Kd of 13000 nM.

Turning to KVSPPSLGK, in the experiment with HLA-A*30:01 (setting [11]), the Kd turned out to be 1.12 nM.

In the experiment with HLA-B*15:01 (source organism: Pseudomonas aeruginosa), NQRETTVVW displayed a Kd of 133 nM.

Consider RTRDLFIAL, for which the Kd in the experiment with HLA-A*30:01 (setting [11]) is 0.108 nM.

As for LLYKQLNFT, the dissociation constant (Kd) with HLA-A*69:01 (setting [13]) was at least 20600 nM; with HLA-A*02:01 [1] (setting [13]) it was 1180 nM.

In the experiment with HLA-A*02:01 [4] (source organism: unidentified), FLHEDTEKI had a Kd of 20 nM.

In the case of NLWNGIVPT, in the experiment with HLA-A*02:01 [4] (setting [14]), the Kd amounted to 0.2 nM.

In the case of GLGSFVARK, the Kd in the experiment with HLA-A*03:01 [5] was found to be 209 nM.

LSNGMLRFA displayed an IC50 with HLA-A*02:01 [2] (setting [15]) of 5560 nM.

Turning to RYRCSFAVA, in the experiment with HLA-A*30:01 (setting [11]), the Kd was 0.00377 nM.

With HPDIVIYQY, the figures for the Kd in the experiment with HLA-B*15:01 (setting [16]) and in the experiment with HLA-B*07:02 (setting [16]) were 1510 nM and 13000 nM, respectively.

Regarding SLARGFPFV, the figures for the Kd with HLA-A*02:01 [4] (setting [17]) and with HLA-A*69:01 (setting [17]) were 1.23 nM and at most 1 nM, respectively.

Take ETLQRKYGGA: in the experiment with HLA-A*26:01 [6], the Kd is 311 nM.

On to RFLTIPPTA, for which the Kd with HLA-A*30:01 (source organism: Dengue virus 2 Jamaica/1409/1983) amounted to 60.5 nM.

Turning to RLKVFLPNP, the IC50 in the experiment with HLA-A*02:01 [2] (source organism: Variola virus) worked out at 9430 nM.

Consider AMVQVHSQG, for which the IC50 with HLA-A*02:01 [2] (setting [12]) is at least 102000 nM.

In the experiment with HLA-B*58:01 (source organism: Mycobacterium tuberculosis F11), VSTAVAALF registered a Kd of 32.6 nM.

With KLPRWIFFA, the Kd turned out to be 951 nM with HLA-A*69:01 (setting [18]) and 1.5 nM with HLA-A*02:01 [1] (setting [18]).

In the case of RTHTALIFL, the Kd with HLA-A*30:01 (setting [11]) worked out at 0.704 nM.

SAMVQVHSQ showed an IC50 with HLA-A*02:01 [2] (setting [12]) of at least 609000 nM.

In the experiment with HLA-A*02:01 [2] (setting [15]), LLSQYVDDA yielded a half-maximal inhibitory concentration (IC50) of 23300 nM.

The sequence RMGERQLQK yielded a Kd with HLA-A*11:01 [7] of 29.5 nM.

As for KVMFVIRFK, the Kd in the experiment with HLA-A*30:01 (setting [11]) is 0.597 nM.

On to TLFYCDERDA, for which the values for the Kd in the experiment with HLA-A*02:02, with HLA-A*02:06 and in the experiment with HLA-A*02:03 were 271 nM, 19500 nM and 2150 nM, respectively.

For KSLYSHQLV, in the experiment with HLA-A*30:01 (setting [11]), the Kd turned out to be 12.3 nM.

As for WVMDTLNGIM, the dissociation constant (Kd) with HLA-A*02:02 is 1330 nM; in the experiment with HLA-A*02:06, 129 nM; with HLA-A*02:03 it was 194 nM.

With SILLSSLLK, the Kd was 8.01 nM with HLA-A*03:01 [8], 19.3 nM with HLA-A*11:01 [9] and 2140 nM with HLA-A*30:01 (source organism: Dengue virus 1 Brazil/97-11/1997).

The sequence GLPPGTPAV displayed a Kd in the experiment with HLA-A*02:01 [1] (source organism: Mycobacterium tuberculosis) of 27.8 nM.

Regarding YVKFIYFIK, the Kd in the experiment with HLA-A*30:01 (setting [11]) came to 60 nM.

Take SYTQVCDHRL: in the experiment with HLA-A*24:02, the Kd came out at 930 nM.

As for FVTLITGNM, the Kd with HLA-A*26:01 [6] came out at 1390 nM.

For RPASAGAML, the Kd was found to be 8380 nM with HLA-A*69:01 (source organism: Homo sapiens) and 34 nM with HLA-B*07:02 (source organism: Homo sapiens).

EVSARIAAL: in the experiment with HLA-A*26:01 [3], the Kd was determined as 12.4 nM.

Turning to RSLKAFFSW, the Kd with HLA-B*58:01 (source organism: Mammarenavirus machupoense) worked out at 29.4 nM.

Consider AMLHWSLIL, for which, in the experiment with HLA-A*69:01 (source organism: Yellow fever virus 17D), the Kd was at least 20000 nM.

Regarding FLQISRVNDL, the Kd is 5.18 nM in the experiment with HLA-A*02:02, 583 nM in the experiment with HLA-A*02:06 and 67.1 nM with HLA-A*02:03.

For IIKSPYMFA, the Kd with HLA-A*30:01 (setting [14]) was determined as 6.42 nM.

For ETFPNVHEHI, the Kd with HLA-A*02:02 was 8020 nM; with HLA-A*02:06 it was at least 69800 nM; with HLA-A*02:03, 6620 nM.
